Experimental data as given in PMC4036818.
Where two headings read alike, the source gives them in different places.

Columns and labels:
[1] = biological target: native SARS-CoV 3CLpro (3C-like protease, nsp5) with an n-terminal methionine (SARS-CoV (Urbani strain)) (UniProt P0C6X7); test: enzyme activity against enzyme concentration
[2] = biological target: native SARS-CoV 3CLpro (3C-like protease, nsp5) with an n-terminal methionine (SARS-CoV (Urbani strain)) (UniProt P0C6X7); test: enzyme activity against enzyme concentration; remark: listed apart in the source

native SARS-CoV 3CLpro (3C-like protease, nsp5) with an n-terminal methionine (from UniProt P0C6X7 3241-3544) (enzyme)
Kd [1]: 250 to 1000 nM | Kd [2]: 230 nM
